Assay [1] addresses T1, N-terminally truncated 20 mer without isoleucine-613 (614-622) (Homo sapiens).
T1 construct: source: synthetic peptide, immobilised on a cellulose membrane (PepSpots, JPT Peptide Technologies)
T1 chain: WKFPDEEGA
Kind of assay: peptide or protein array; peptides immobilised on a cellulose membrane (PepSpots); Oslo-2 mAb 5 μg/mL in 5% nonfat skim milk, three hours at RT; HRP-conjugated secondary antibody, chemiluminescence. To be noted: both partners purified.

Assay [2] has as its target T2, N-terminally truncated 20 mer without proline-612 (613-622) (Homo sapiens).
T2 construct: source: synthetic peptide, immobilised on a cellulose membrane (PepSpots, JPT Peptide Technologies)
T2 chain: IWKFPDEEGA
The assay is described as above. To be noted: both partners purified.

For assay [3], the target named is T3, 20 mer epitope peptide GVKPDLSYMPIWKFPDEEGA (region 603-622 in HER2) (Homo sapiens).
T3 construct: region 603-622 in HER2, spanning the N terminus of the p95HER2 extracellular domain; source: synthetic peptide, immobilised on a cellulose membrane (PepSpots, JPT Peptide Technologies)
T3 chain: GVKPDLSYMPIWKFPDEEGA
The description is as above. To be noted: both partners purified.

Assay [4] concerns the target T4, N-terminally truncated 20 mer without methionine-611 (612-622) (Homo sapiens).
T4 construct: source: synthetic peptide, immobilised on a cellulose membrane (PepSpots, JPT Peptide Technologies)
T4 chain: PIWKFPDEEGA
Described as above. To be noted: both partners purified.

Assay [5] deals with T5, peptide 1 of the overlapping 15mer peptides covering the p95HER2 extracellular domain (Homo sapiens, UniProt P04626).
T5 construct: first 15mer of the p95HER2 extracellular domain, containing MPIW; source: synthetic peptide, immobilised on a cellulose membrane (PepSpots, JPT Peptide Technologies)
T5 chain: MPIWKFPDEEGACQP
The assay is described as above. As to conditions: both partners purified.

Assay [6] addresses T6, full-length HER2 in transduced MDA-MB-468 cells (Homo sapiens, UniProt P04626).
T6 construct: full-length HER2 expressed from the plasmid pBABEpuro-ERBB2; source: cultured cells and subcutaneous xenograft tumours
The experiment in a line: flow cytometry on cells; Oslo-2 mAb 10 μg/mL on cell lines, 30 min at 4 °C in FACS buffer (PBS pH 7, 2% FBS, 2 mM EDTA), labelled secondary antibody. As to conditions: one partner purified.

Assay [7] deals with T7, 611-CTF-p95HER2 (611-carboxy terminal fragment of HER2) on p95HER2-T47D cells (Homo sapiens, UniProt P04626).
T7 construct: source: p95HER2-T47D cells (C2069, Crown Bioscience); cultured cells and orthotopic xenograft tumours in NSG mice
The assay is described as above. To be noted: one partner purified.

Assay [8] deals with T8, full-length HER2 (endogenous) (Homo sapiens, UniProt P04626).
T8 construct: human epidermal growth factor receptor 2 (HER2), full-length, on cells and in tissue sections; also called HER2 full-length; full-length HER2 receptor; source: endogenous, SK-BR-3 and A549 cells; endogenous, human breast carcinoma biopsy and normal human tissues
The assay is described as above. To be noted: one partner purified.

For assay [9], the target named is T9, extracellular domain of p95HER2 peptide with a poly-histidine-tag in the C-terminus (Homo sapiens).
T9 construct: printed with HHHHHH at the C-terminus; also called p95HER2 ECD peptide; source: synthetic peptide (GenScript); not shown: His6, C-terminal, kept
Kind of assay: SPR; Oslo-2 mAb (5 μg/mL) covalently immobilised by amine coupling on a CM5 chip, anti-HER2 (cytopla-HER2) mAb on the reference flow cell; p95HER2 ECD peptide as analyte, 0.6 to 2500 nM; HBS-EP+ buffer; 25 °C; Biacore T200; global fit to the 1:1 bimolecular interaction model. To be noted: both partners purified. A general note: SPR reads the build-up and loss of mass on a sensor chip optically.

For assay [10], the target named is T7, 611-CTF-p95HER2 (611-carboxy terminal …). Kind of assay: flow cytometry on cells; monoclonal hybridoma supernatant (1:50 dilution) on cell lines, 30 min at 4 °C in FACS buffer, goat anti-rat-PE. To be noted: partners not purified. For orientation: In flow cytometry, cells or beads pass a laser one at a time.

The text below walks through data of article PMC9563779 (Cancers, 2022).

As usually defined, the Kd is the constant that tells how readily two partners part at equilibrium. A high value points to weaker binding.

B1: Oslo-2 mAb (antibody, V domains shown)
VH: EVQILETGGGLVKPGGSLRLSCATSGFNFNDYFMNWVRQAPGKGLEWIAQIRNKNYNYATYFAESLEGRFTISRDDSKSSVYLQVNSLRAEDTALYYCTELRYDYWGQGVMVTVSS
VL: DIVMTQSPFSLAVSEGEMVTINCKSSQSLLSSGNQKNNLAWYQQKPGQSPKLLIYYASTRQSGVPDRFIGSGSGTDFTLTISDVQAEDLADYYCLQHYSSPYTFGAGTKLELK
notes: variable heavy domain; variable light domain; On the peptide membrane Oslo-2 was detected with a horse anti-mouse secondary antibody, so the constant regions may be mouse (surmise); also called Oslo-2 Ab; Oslo-2 (p95HER2) antibody
Turning to B1, the binding result in assay [1] is listed as “binds”; in [2], “binds”; in assay [3] it was “binds”; in [4], “binds”; in assay [5], “binds”; in assay [6], “no binding (tested: 10 μg/mL)”. Further, the results for the binding result in assay [7] and in assay [8] were “binds” and “no binding (tested: 10 μg/mL)”, respectively. The affinity in assay [9], expressed as Kd, was 2 nM.

B2: mClone 1 (monoclonal hybridoma culture supernatant) (antibody, V domains shown)
VH: EVQILETGGGLVKPGGSLRLSCATSGFNFNDYFMNWVRQAPGKGLEWIAQIRNKNYNYATYFAESLEGRFTISRDDSKSSVYLQVNSLRAEDTALYYCTELRYDYWGQGVMVTVSS
VL: DIVMTQSPFSLAVSEGEMVTINCKSSQSLLSSGNQKNNLAWYQQKPGQSPKLLIYYASTRQSGVPDRFIGSGSGTDFTLTISDVQAEDLADYYCLQHYSSPYTFGAGTKLELK
notes: constant region of the rat hybridoma antibody; source: rat hybridoma (B-cells fused with Ag8 myeloma cells), sub-cloned by limited dilution, culture supernatant
On to B2, for which the binding result in assay [10] is “binds”.
